The data set has as its system Ac transposase (Zea mays). Kind of data set: cell_activity. The conditions noted are these: Ds excision from test plasmid in wheat immature embryos; 0 without transposase plasmid.

This is an account of results in patent US6951972.

Regarding “Ds-Ubi-bar element (254 bp Ds 5' and 320 bp Ds 3' ends)”, the activity (blue spots per embryo) was determined as 61.
